Here are results for one substance from PMC10080687, “Tautomer-Specific Deacylation and Ω-Loop Flexibility Explain the Carbapenem-Hydrolyzing Broad-Spectrum Activity of the KPC-2 β-Lactamase” (Journal of the American Chemical Society, 2023).

Test in all cases: purified protein
What all share (settings): acylates Ser70

Data set [1] deals with C[C@@H](O)[C@H]1C(=O)N2C(C(=O)O)=C(S[C@@H]3CN[C@H](C(=O)Nc4cccc(C(=O)O)c4)C3)[C@H](C)[C@H]12. The format is biochemical, Klebsiella pneumoniae.
The subject of data set [2] is C[C@@H](O)[C@H]1C(=O)N2C(C(=O)O)=C(S[C@@H]3CN[C@H](C(=O)N(C)C)C3)[C@H](C)[C@H]12. The format is biochemical, Klebsiella pneumoniae.
In data set [3] the test system is CC(=O)OCC1=C(C(=O)O)N2C(=O)[C@@H](NC(=O)Cc3cccs3)[C@H]2SC1.
Data set [4] concerns C[C@@H](O)[C@H]1C(=O)N2C(C(=O)O)=C(SCCN=CN)C[C@H]12.

On to KPC-2 (Klebsiella pneumoniae), for which the Km (in general, the concentration of substrate that gives half-maximal velocity) in data set [1] stood at 8.6 µM; in data set [2] it was 7.1 µM; in data set [3], 42 µM; in data set [4], 72 µM. The kcat (as a rule, the maximal rate divided by the concentration of active sites) in data set [1] was found to be 8 s⁻¹; in data set [2], 21 s⁻¹; in data set [3], 110 s⁻¹; in data set [4] it was 22 s⁻¹. Moreover, the values for the kcat/Km in data set [1], in data set [2] and in data set [4] were 920000 M⁻¹ s⁻¹, 3e+06 M⁻¹ s⁻¹ and 310000 M⁻¹ s⁻¹, respectively.
